Source: patent publication US20100129347A1 (OSAKA UNIVERSITY, published 2010)

Assays:
[1] = molecular target: T1, glycoprotein B (gB) of HSV-1 (HSV-1, UniProt P06436 30-903); assay: immunoprecipitation from lysate of HSV-1-infected 293T cells, SDS-PAGE, silver stain
T1 construct: also called protein of 110 kDa; PILR-recognizing ligand

[2] = molecular target: T2, FLAG-tagged extracellular region of gB (29th to 720th amino acids) with transmembrane and intracellu (HSV-1; mouse, UniProt P06436 29-720); assay: flow cytometry on transfected 293T cells
T2 construct: also called cell expressing gB; cells to which gB had been transfected

B1: human CD200-Ig fusion protein (Fc fusion)
chain: QVQVVTQDEREQLYTPASLKCSLQNAQEALIVTWQKKKAVSPENMVTFSENHGVVIQPAYKDKINITQLGLQNSTITFWNITLEDEGCYMCLFNTFGFGKISGTACLTVYVQPIVSLHYKFSEDHLNITCSATARPAPMVFWKVPRSGIENSTVTLSHPNGTTSVTSILHIKDPKNQVGKEVICQVLHLGTVTDFKQTVNKG
notes: Control for PILR-Ig; also called control Ig; not shown: Ig part not described
[1]
  binding result: no binding

B2: HVEM-Ig (Fc fusion)
chain: LPSCKEDEYPVGSECCPKCSPGYRVKEACGELTGTVCEPCPPGTYIAHLNGLSKCLQCQMCDPAMGLRASRNCSRTENAVCGCSPGHFCIVQDGDHCAACRAYATSSPGQRVQKGGTESQDTLCQNCPPGTFSPNGTLEECQHQTKCSWLVTKAGAGTSSSHWV
notes: not shown: Ig part not described
[2]
  binding result: no binding
